Experimental data taken from patent US20230212285A1.
Substitutions are numbered along the chain they refer to. One block for each binder: values may come before it.

Target: human C-KIT-Fc protein (human) (UniProt P10721)
Experiment: direct ELISA, IgG at 1 µg/ml

OD450 nm: > 1.8 OD450 nm
B1: E-C2 (antibody, human IgG1, V domains shown)
VH: QVQLVQSGAEVKKPGASVKVSCKASGYTFTDYYMNWVRQAPGQGLEWMGRIYPGSGNTYYAQKFQGRVTMTRDTSTSTVYMELSSLRSEDTAVYYCARGVYYLDYWGQGTLVTVSS
VL: DIQMTQSPSSLSASVGDRVTITCRASQGIRTNVAWLQQKPGKAPKSLIYSASYRQSGVPSRFSGSGSGTDFTLTISSLQPEDFATYYCQQYNSYPRTFGGGTKVEIK

OD450 nm: > 1.8 OD450 nm
B2: MH1 IgG1 (antibody, V domains shown)
VH: B1 VH with L103Y
VL: B1 VL with V33L, L36F, S50A, Y53S, R54L
